# Results: patent US20030180744, “High affinity oligonucleotide ligands to growth factors” (GILEAD SCIENCES, INC., published 2003)
# Numbering of substitutions follows the chain as printed.
# B1: lib3-3 (ssRNA)
# RNA: GGGGGAGAACGCGGAUCCGAGCAACCCCAGGCGCAUAGCUUCCGAGUAGACAGGAGGGAGGGGUGGAUGUGGCGUCUACUCGGUGUCGUGAAGCUUCGCUCUAGAUCUCCCUUUAGUGAGGGUUA
# modifications: 2'-NH2 pyrimidines
# B2: lib7-21 (ssRNA)
# RNA: GGGGGAGAACGCGGAUCCGAGCAAUCCCGGGCGCAUAGCUUCCGAGGAGACAGGCGGGAGGGGUGGAUGUGGCGUCUCGAGAAGCUUCGCUCUAGAUCUCCCUUUAGUGAGGGUUA
# modifications: 2'-F U, 2'-NH2 C
# B3: 50F (ssRNA)
# RNA: GGGAGGACGAUGCGGUGAUCAAUCGGCGCUUUACUCUUGCGCUCACCGUGCCCCAGACGACUCGCCCGA
# modifications: 2'-F pyrimidines
# B4: lib7-43 (ssRNA)
# RNA: B2 RNA with G29A, G47U
# modifications: 2'-F U, 2'-NH2 C
# B5: lib3-44 (ssRNA)
# RNA: GGGGGAGAACGCGGAUCCUGAGAAGGACGUCGGGGUGAGGUGCAGCAGAAAGGGCCGGCACCACAUGACGUAAAAGCUUCGCUCUAGAUCUCCCUUUAGUGAGGGUUA
# modifications: 2'-NH2 pyrimidines
# B6: lib1-20-3-82 (ssRNA)
# RNA: GGGGGAGAACGCGGAUCCUGCUAGACCGAGGAUGCAAAGGGACAUGCAUUAGGGAAACCUAUGUAUAAGAACGCGGUCGCAG
# modifications: 2'-F pyrimidines
# B7: lib6-30 (ssRNA)
# RNA: GGGGGAGAACGCGGAUCCUGCUAGACCGAGGAUGCAAAGGGACAUGCAUUAGGGAAACCUAUUAUAAGAACGCGGUCGCAGAAGCUUCGCUCUAGAUCUCCCUUUAGUGAGGGUUA
# modifications: 2'-F pyrimidines
# B8: lib9-10 (ssRNA)
# RNA: GGGGGAGAACGCGGAUCCUGUCUCCACCGCCGAUACUGGGGUUCCUGGGGCCCCUCCAUGCAGGAGGGGUGGUUCGGAGAAAGCUUCGCUCUAGAUCUCCCUUUAGUGAGGGUUA
# modifications: 2'-NH2 U, 2'-F C
# B9: lib3-45 (ssRNA)
# RNA: GGGGGAGAACGCGGAUCCGGAAGUCUGGUCUUUGGGGAGUCCGCAUGGCCCUGGCGAAAGCUUCGCUCUAGAUCUCCCUUUAGUGAGGGUUA
# modifications: 2'-NH2 pyrimidines
# B10: lib1-20-5 (ssRNA)
# RNA: GGGGGAGAACGCGGAUCCAAGAAUGUUCGGCCGCACGAGGUGACAGUGGUGCGGAUACGGACCGAUUGGGUUUGCCAAGCUUCGCUCUAGAUCUCCCUUUAGUGAGGGUUA
# modifications: 2'-F pyrimidines
# B11: 57N (ssRNA)
# RNA: GGGAGGACGAUGCGGUCGUGGGGUGGGUGGGGGCAGCGUUGGAAUAAGUAACUGGUAACGGCUGGCCAGACGACUCGCCCGA
# modifications: 2'-NH2 pyrimidines
# B12: 59N (ssRNA)
# RNA: GGGAGGACGAUGCGGGGUGGGUGGUUACCUGUAAUUAUAUUGAUUCUGGCUUUAGCAGACGACUCGCCCGA
# modifications: 2'-NH2 pyrimidines
# B13: 65N (ssRNA)
# RNA: GGGAGGACGAUGCGGUAACGUGGAAUAGGGUUAAACAGCUGGAAAUAACGUAGGUGGCCAGACGACUCGCCCGA
# modifications: 2'-NH2 pyrimidines
# B14: lib5-48 (ssRNA)
# RNA: GGGGGAGAACGCGGAUCCGGCAAUCCCAGGCGCAUAGCUUCCGAGUAGACAGGAGGGAGGGGUGGAUGUGGUGUACGAGGAAGCUUCGCUCUAGAUCUCCCUUUAGUGAGGGUUA
# modifications: 2'-NH2 pyrimidines
# B15: lib2-6-4 (ssRNA)
# RNA: B2 RNA with G29A, G47U, C55A, C73U
# modifications: 2'-NH2 pyrimidines
# B16: lib6-23 (ssRNA)
# RNA: GGGGGAGAACGCGGAUCCAAGCUUCGAGUAGACAGGAGGGAGGGGUGGAUGUGGAGUCUCGAGAAGCUUCGCUCUAGAUCUCCCUUUAGUGAGGGUUA
# modifications: 2'-NH2 pyrimidines
# B17: lib4-12 boundaries (ssRNA)
# RNA: GGAGAACGCGGAUCCUGAGAAGGACGUCGGGGUCAACGGGGUGAGGUGCAGCAGAAAGGGCCGGCACCA
# modifications: modified pyrimidines
# How the values were obtained:
# TGFβ1 [1] = molecular target: T1, TGFβ1 (Homo sapiens, UniProt P01137 P01137:279-390); assay: filter; 37 C, KRH buffer; details: tags: Genentech; biotinylated version used in bead assay; chain copies: 2
# TGFβ1 [2] = molecular target: T1, TGFβ1; assay: filter; not inhibitory in cell assay; details: tags: Genentech; biotinylated version used in bead assay; chain copies: 2
# KGF (hKGF) [3] = molecular target: T2, KGF (hKGF) (Homo sapiens, UniProt P21781 P21781:32-194); assay: filter; biphasic, high affinity 21%; Kd2 2.10 nM; details: tags: Upstate Biotechnology; label: 32P
# T2 sequence: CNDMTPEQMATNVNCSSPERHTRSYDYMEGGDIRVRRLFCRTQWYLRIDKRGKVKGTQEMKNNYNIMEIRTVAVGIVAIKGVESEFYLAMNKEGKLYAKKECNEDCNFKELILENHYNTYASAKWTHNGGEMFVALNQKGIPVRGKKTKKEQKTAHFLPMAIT
# KGF (hKGF) [4] = molecular target: T2, KGF (hKGF); assay: filter; 43-mer, shortest active truncate; retains high and low affinity components; details: tags: Upstate Biotechnology; pseudoknot (predicted)
# Protocol: In an effort to identify shorter KGF ligands that retained binding, the binding activity of various deletions of the shortest truncate of ligand 14F, namely 14F3′T were tested. Deletions were tested in all the structural elements of the proposed pseudoknot structure. RNA transcripts containing 2′F pyrimidines and 2′OH purines were obtained by in vitro transcription using synthetic DNA templates. The activity of each ligand is shown by scoring for both the high (H) and low (L) affinity component of the 14F3′T binding curve with +(active) or −(not active). Truncates T35 and T36 represent two complementary halves of 14F3′T molecule and were additionally tested as an equimolar mixture. The structural elements of the proposed pseudoknot structure are separated by (1) and are indicated by symbols S1 (stem 1), S2 (stem 2), L1 (loop 1) and L3 (loop 3). The proposed pseudoknot structure for 14F3′T is a non-H-type pseudoknot and lacks L2 (loop 2). The complementary sequences forming S1 (S1 and S1′) and S2 (S2 and S2′) are marked by single and double underlines respectfully. In the tabulated sequences, deleted bases were replaced with periods (.). […] Deletions in loop 3 (L3), however, were tolerated as long as one copy of the RRYY box remained intact. The shortest ligand that retained activity is T22 which is a 43-mer. […]
# TGFβ1 [5] = molecular target: T1, TGFβ1; assay: filter; cell IC50 119 nM; details: tags: Genentech; biotinylated version used in bead assay; chain copies: 2
# TGFβ1 [6] = molecular target: T1, TGFβ1; assay: cell_activity; details: tags: Genentech or R&D Systems; chain copies: 2
# Protocol: MLEC-Pail/luc cells were plated at 3.2×10⁴ cells per well in a 96 well Falcon plate, in 100 μl of DME+10% fetal bovine serum overnight. Media was made from autoclaved water. The cells were washed three times ([…]) in serum free DME plus Solution A (1:1). Solution A is 30 mM Hepes pH 7.6, 10 mM glucose, 3.0 mM KCl, 131 mM NaCl, 1.0 mM disodium phosphate. Samples (100 μl) were added in DME containing 20 mM Hepes pH 7.5, and 0.1% BSA (Fluka, radioimmunoassay grade). All samples were in triplicate. After six hours at 37° C. in a 5% CO₂ incubator the media was removed and cells were washed three times (100 μl each) in cold PBS. Lysis buffer (75 μl) (Analytical Luminescence Laboratory) was added and the plates incubated on ice for 20 min. The plates were sealed and frozen at −80° C. until assayed. Samples (25 μl) were assayed for luciferase activity with the Enhanced Luciferase Assay Kit from Analytical Luminescence Laboratory (San Diego, Calif., USA) according to the manufacturer's instructions using the Berthold Microlumat LB96P luminometer.
# Ligands tested for inhibition of TGFβ1 activity were tested at a minimum of five concentrations. The ligands were serially diluted in DME, 20 mM Hepes pH 7.5, 0.1% Fluka BSA in polypropylene tubes and an equal volume of media containing 12 pM TGFβ1 was added to each tube, vortexed and transferred to the cells without further incubation.
# TGFβ1 [7] = molecular target: T1, TGFβ1; assay: filter; not inhibitory; details: tags: Genentech; biotinylated version used in bead assay; chain copies: 2
# KGF (hKGF) [8] = molecular target: T2, KGF (hKGF); assay: filter; similar to random RNA; details: tags: Upstate Biotechnology; label: 32P
# TGFβ1 [9] = molecular target: T1, TGFβ1; assay: filter; boundary experiment, each terminus separately; details: tags: Genentech or R&D Systems; chain copies: 2
# KGF (hKGF) [10] = molecular target: T2, KGF (hKGF); assay: filter; high +, low +; details: tags: Upstate Biotechnology
# Protocol: In an effort to identify shorter KGF ligands that retained binding, the binding activity of various deletions of the shortest truncate of ligand 14F, namely 14F3′T were tested. Deletions were tested in all the structural elements of the proposed pseudoknot structure. RNA transcripts containing 2′F pyrimidines and 2′OH purines were obtained by in vitro transcription using synthetic DNA templates. The activity of each ligand is shown by scoring for both the high (H) and low (L) affinity component of the 14F3′T binding curve with +(active) or −(not active). Truncates T35 and T36 represent two complementary halves of 14F3′T molecule and were additionally tested as an equimolar mixture. The structural elements of the proposed pseudoknot structure are separated by (1) and are indicated by symbols S1 (stem 1), S2 (stem 2), L1 (loop 1) and L3 (loop 3). The proposed pseudoknot structure for 14F3′T is a non-H-type pseudoknot and lacks L2 (loop 2). The complementary sequences forming S1 (S1 and S1′) and S2 (S2 and S2′) are marked by single and double underlines respectfully. In the tabulated sequences, deleted bases were replaced with periods (.). […] Deletions in loop 3 (L3), however, were tolerated as long as one copy of the RRYY box remained intact. The shortest ligand that retained activity is T22 which is a 43-mer. In trying to obtain shorter ligands by truncating L3 further a mutant version of T22 (designated T22mu) was used where the last GC base pair of S1 was eliminated by a G to U mutation at position 6. The reasoning for this mutation was to enhance the flexibility of the double stranded region of this ligand by allowing an unpaired base between S1 and S2.
# PDGF-BB = PDGF-BB (Homo sapiens, UniProt P01127 P01127:82-190); assay: competition; PDGF alpha-receptor PAE cells, 4 C; details: tags: R&D Systems, E. coli; chain copies: B chain dimer; three-way helix junction
# Protocol: The binding of ¹²⁵I-PDGF-AA and ¹²⁵I-PDGF-BB to porcine aortic endothelial (PAE) cells transfected with PDGF α- or β-receptors were performed as described (Heldin et al., (1988) EMBO J. 7:1387-1394). Different concentrations of DNA ligands were added to the cell culture (1.5 cm²) in 0.2 ml of phosphate buffered saline supplemented with 1 mg bovine serum albumin per ml together with ¹²⁵I-PDGF-AA (2 ng, 100,000 cpm) or ¹²⁵I-PDGF-BB (2 ng, 100,000 cpm). After incubation at 4° C. for 90 min, the cell cultures were washed and cell associated radioactivity determined in a γ-counter (Heldin et al., (1988) EMBO J. 7:1387-1394).
# In order to determine whether the DNA ligands to PDGF were able to inhibit the effects of PDGF isoforms on cultured cells, the effects on binding of ¹²⁵I-labeled PDGF isoforms to PDGF α- and β-receptors stably expressed in porcine aortic endothelial (PAE) cells by transfection was determined.
# T1 sequence (P01137 279-390, one chain of several): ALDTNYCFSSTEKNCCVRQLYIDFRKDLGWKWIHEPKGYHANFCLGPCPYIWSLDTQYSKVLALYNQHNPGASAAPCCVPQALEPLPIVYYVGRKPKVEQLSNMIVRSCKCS
# Chain of PDGF-BB (P01127 82-190, one chain of several): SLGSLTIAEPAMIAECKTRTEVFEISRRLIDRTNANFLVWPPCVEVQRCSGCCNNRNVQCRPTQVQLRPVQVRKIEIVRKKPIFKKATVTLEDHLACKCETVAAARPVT
binder,measurement,setting,value
B1,Kd,TGFβ1 [1],1.7 nM
B2,Kd,TGFβ1 [2],2.4 nM
B3,Kd,KGF (hKGF) [3],0.12 nM
B4,Kd,TGFβ1 [2],3.3 nM
"GGGAGGACGAUGCGGUGGUCUCCCAAUUCUUCUCCAUCGUAUC (ssRNA, 2'-F pyrimidines) [T22]",binding result,KGF (hKGF) [4],binds
B5,Kd,TGFβ1 [5],1.3 nM
same,IC50,TGFβ1 [6],119 nM
B6,Kd,TGFβ1 [7],6.1 nM
B7,Kd,TGFβ1 [7],8.8 nM
B8,Kd,TGFβ1 [7],1.1 nM
B9,Kd,TGFβ1 [7],1.9 nM
B10,Kd,TGFβ1 [7],46 nM
B11,Kd,KGF (hKGF) [8],35.8 nM
B12,Kd,KGF (hKGF) [8],22 nM
B13,Kd,KGF (hKGF) [8],26.6 nM
B14,Kd,TGFβ1 [2],3.8 nM
B15,Kd,TGFβ1 [2],3.1 nM
B16,Kd,TGFβ1 [2],3.4 nM
B17,binding result,TGFβ1 [9],binds
"GGGAGGACGAUGCGGUGGUCUCCCCUAAACUUUCUCCAUCGUAUC (ssRNA, 2'-F pyrimidines) [T4]",binding result,KGF (hKGF) [10],binds
"GGGAGGACGAUGCGGUGGUCUCCCAAUUCUAUUCUCCAUCGUAUC (ssRNA, 2'-F pyrimidines) [T5]",binding result,KGF (hKGF) [10],binds
"GGGAGGACGAUGCGGUGGUCUCCCAAUUCUAUCUCCAUCGUAUC (ssRNA, 2'-F pyrimidines) [T18]",binding result,KGF (hKGF) [10],binds
"GGGAGGACGAUGCGGUGGUCUCCCAAUUCUUUCUCCAUCGUAUC (ssRNA, 2'-F pyrimidines) [T21]",binding result,KGF (hKGF) [10],binds
"GCUUCCGAGUAGACAGGAGGGAGGGGUGGAUGUGGCGUCUAC (ssRNA, modified pyrimidines) [lib3-13 boundaries (38-79)]",binding result,TGFβ1 [9],binds
"TGGGAGGGCGCGTTCTTCGTGGTTACTTTTAGTCCCGT (ssDNA, 3'-3' idT) [20t]",IC50,PDGF-BB,~1 nM
"TACTCAGGGCACTGCAAGCAATTGTGGTCCCAATGGGCTGAGTAT (ssDNA, 3'-3' idT) [41t]",IC50,PDGF-BB,~1 nM
